From patent publication US20100081787A1 (FIBREX MEDICAL RESEARCH AND DEVELOPMENT, published 2010)
Numbered stars: 1 amine (or outer) side, 2 acyl side, 3 side chain; on linkers, the order of the positions; unused ones are H or OH. Square brackets hold non-standard residues; d marks the D form. Ends that are not written are not given here. ACHC(1S,2R) = O=C([C@H]1CCCC[C@H]1N[*:1])[*:2]

Biological target: T1, vascular endothelial (VE) cadherin (human, UniProt P33151 48-784)
T1 sequence (looked up): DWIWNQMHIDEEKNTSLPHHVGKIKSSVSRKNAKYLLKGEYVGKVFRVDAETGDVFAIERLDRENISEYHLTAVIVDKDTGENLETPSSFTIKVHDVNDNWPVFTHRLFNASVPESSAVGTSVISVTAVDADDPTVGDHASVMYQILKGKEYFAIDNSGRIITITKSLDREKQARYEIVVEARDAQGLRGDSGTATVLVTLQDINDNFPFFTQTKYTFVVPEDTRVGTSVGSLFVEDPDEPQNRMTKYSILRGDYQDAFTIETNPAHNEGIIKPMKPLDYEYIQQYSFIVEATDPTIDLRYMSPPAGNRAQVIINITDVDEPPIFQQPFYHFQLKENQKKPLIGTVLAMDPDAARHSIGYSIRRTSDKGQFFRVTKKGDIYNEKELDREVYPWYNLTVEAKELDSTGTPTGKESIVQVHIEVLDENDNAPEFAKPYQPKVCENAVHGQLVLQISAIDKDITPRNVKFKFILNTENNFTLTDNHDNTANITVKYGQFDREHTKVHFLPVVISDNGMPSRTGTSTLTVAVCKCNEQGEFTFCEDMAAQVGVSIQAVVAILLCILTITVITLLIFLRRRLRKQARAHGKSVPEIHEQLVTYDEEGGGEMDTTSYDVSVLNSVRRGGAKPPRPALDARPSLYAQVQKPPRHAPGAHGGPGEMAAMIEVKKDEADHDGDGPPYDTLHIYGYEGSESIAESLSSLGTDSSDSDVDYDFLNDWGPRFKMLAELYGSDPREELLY
Experiment: cell-based or functional assay

GHRP[ACHC(1S,2R)]ISGG [Gly-His-Arg-Pro-(1S, 2R)Achc-Ile-Ser-Gly-Gly]
Relative RhoA stimulation compared to unstimulated control: 2.2 relative to unstimulated control
